This note sets out measurements from US20140087995A1 (published 2014).

Numbered stars: 1 amine (or outer) side, 2 acyl side, 3 side chain; on linkers, the order of the positions; unused ones are H or OH. Bridge positions count the residues as written; N and C are the ends. Side chains are listed from the residue outwards. Ends that are not written are not given here. * marks the point of attachment. C20 diacid = O=C(O)CCCCCCCCCCCCCCCCCCC(=O)*; γGlu = O=C(O)[C@H](CCC(=O)[*:2])N[*:1]; AEEA = NCCOCCOCC(=O)O

For orientation: IC50 means the midpoint of a concentration-inhibition curve.

The target of test [1] is T1, human calcitonin receptor (human, UniProt P30988 25-474).
T1 construct: whole, on cells; Assay used cell membranes, not intact cells; also called hCTR; hCT
T1 sequence (looked up): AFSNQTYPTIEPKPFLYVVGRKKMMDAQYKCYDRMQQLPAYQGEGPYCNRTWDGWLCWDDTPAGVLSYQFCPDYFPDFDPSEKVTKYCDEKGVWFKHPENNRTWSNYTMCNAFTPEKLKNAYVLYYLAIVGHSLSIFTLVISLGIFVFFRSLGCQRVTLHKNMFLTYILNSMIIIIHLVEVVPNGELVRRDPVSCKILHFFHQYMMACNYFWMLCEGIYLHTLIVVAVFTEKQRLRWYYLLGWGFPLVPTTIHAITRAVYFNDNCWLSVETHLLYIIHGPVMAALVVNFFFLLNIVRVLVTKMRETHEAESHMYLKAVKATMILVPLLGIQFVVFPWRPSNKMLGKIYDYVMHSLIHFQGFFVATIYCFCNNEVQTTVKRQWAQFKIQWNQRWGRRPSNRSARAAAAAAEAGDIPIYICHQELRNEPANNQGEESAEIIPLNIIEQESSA
Nature of the test: SPA competition with 125I-calcitonin on membranes of BHK cells with human calcitonin receptor (Assay VII). The procedure:
Membranes were prepared in the following way; the cells were rinsed with PBS and incubated with Versene for approximately 5 min before harvesting. The cells were flushed with PBS and the cell-suspension was centrifuged for 5 min at 1000 rpm. Cells were homogenized (Ultrathurrax) in a buffer containing 20 mM Na-HEPES and 10 mM EDTA (pH 7.4) and centrifuged at 20.000 rpm for 15 min. The resulting pellet was resuspended, homogenized and centrifuged (20.000 rpm, 15 min) in a buffer containing 20 mM Na-HEPES and 0.1 mM EDTA (pH 7.4, buffer 2). The resulting pellet was resuspended in buffer 2 and protein concentration was measured (BCA protein Assay, Pierce). The homogenate was kept cold during the whole procedure. The membranes were kept at −80° C. until use. Assay was performed in a 384 well Optiplate (PerkinElmer) in a total volume of 40 ul. Membranes were mixed with SPA beads. Final concentration of membranes 35 ng/μL final and Final concentration of SPA beads was 0.05 mg/well. Test-compounds were dissolved in DMSO and further diluted in assay buffer (50 mM Hepes, pH 7.4, 1 mM CaCl2, 5 mM MgCl₂, 0.1% OA and 0.02% Tween20). […] The final mixture was incubated for 120 min with shaking at 400 rpm at 25° C. prior to centrifugation (1500 rpm, 10 min). Samples were analyzed on TopCounter™ (Packard). The […] was calculated using (one site binding competition analysis) GraphPad Prism5 as a measure of receptor affinity.

Test [2] concerns the target T2, human amylin receptor (amylin 3(a) receptor: human calcitonin receptor with RAMP-3) (human, UniProt P30988 25-474; O60896 24-148).
T2 construct: whole, on cells; Assay used cell membranes of the Amylin 3(a)/CRE-luc BHK cells, not intact cells; also called hAmylin-R; hAmylinR
T2 sequence (looked up) 1: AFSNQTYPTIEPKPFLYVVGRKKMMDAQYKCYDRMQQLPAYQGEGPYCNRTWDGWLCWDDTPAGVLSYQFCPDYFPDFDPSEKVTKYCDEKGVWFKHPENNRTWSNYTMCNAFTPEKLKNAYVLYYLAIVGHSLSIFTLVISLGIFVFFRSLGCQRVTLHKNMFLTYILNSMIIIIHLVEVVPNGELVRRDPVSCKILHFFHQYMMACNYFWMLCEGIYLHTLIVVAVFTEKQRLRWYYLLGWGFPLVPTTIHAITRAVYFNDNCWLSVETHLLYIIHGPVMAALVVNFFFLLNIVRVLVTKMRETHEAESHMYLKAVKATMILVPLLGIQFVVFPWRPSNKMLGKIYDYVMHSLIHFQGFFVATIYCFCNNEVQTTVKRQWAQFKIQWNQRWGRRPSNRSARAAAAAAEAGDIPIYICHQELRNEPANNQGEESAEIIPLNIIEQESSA
T2 sequence (looked up) 2: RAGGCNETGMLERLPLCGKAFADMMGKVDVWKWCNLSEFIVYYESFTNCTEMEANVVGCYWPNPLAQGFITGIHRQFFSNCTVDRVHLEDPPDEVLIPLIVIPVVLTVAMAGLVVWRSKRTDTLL
Nature of the test: SPA competition with 125I-rat amylin on membranes of BHK cells with human calcitonin receptor and RAMP-3 (Assay V). The procedure: The binding assay was performed using scintillation proximity assay (SPA) beads (RPNQ0001) from PerkinElmer and cell membranes from the Amylin 3(a)/CRE-luc cells (as described in Assay (II)) were used. Membranes were prepared in the following way; the cells were rinsed with PBS and incubated with Versene for approximately 5 min before harvesting. The cells were flushed with PBS and the cell-suspension was centrifuged for 5 min at 1000 rpm. Cells were homogenized (ultrathurrax) in a buffer containing 20 mM Na-HEPES and 10 mM EDTA (pH 7.4) and centrifuged at 20.000 rpm for 15 min. The resulting pellet was resuspended, homogenized and centrifuged (20.000 rpm, 15 min) in a buffer containing 20 mM Na-HEPES and 0.1 mM EDTA (pH 7.4, buffer 2). The resulting pellet was resuspended in buffer 2 and protein concentration was measured (BCA protein Assay, Pierce). The homogenate was kept cold during the whole procedure. The membranes were kept at −80° C. until use. The assay was performed in a 384 well Optiplate (PerkinElmer) in a total volume of 40 ul. Membranes were mixed with SPA beads. Final concentration of membranes 35 ng/μL final and SPA beads was 0.05 mg/well. Test-compounds were dissolved in DMSO and further diluted in assay buffer (50 mM Hepes, pH 7.4, 1 mM CaCl2, 5 mM MgCl₂, 0.1% OA and 0.02% Tween20). […] The final mixture was incubated with shaking at 400 rpm for 120 min at 25° C. prior to centrifugation (1500 rpm, 10 min). Samples were analyzed on TopCounter™ (Packard). The IC₅₀ was calculated using (one site binding competition analysis) GraphPad Prism5 as a measure of receptor affinity.

For test [3], the target named is T1, human calcitonin receptor. Nature of the test: ratio IC50 hCTR / IC50 hAmylin-R (reference: human amylin receptor), SPA competition assays. The protocol: The resulting pellet was resuspended, homogenized and centrifuged (20.000 rpm, 15 min) in a buffer containing 20 mM Na-HEPES and 0.1 mM EDTA (pH 7.4, buffer 2). The resulting pellet was resuspended in buffer 2 and protein concentration was measured (BCA protein Assay, Pierce). The homogenate was kept cold during the whole procedure. The membranes were kept at −80° C. until use. The assay was performed in a 384 well Optiplate (PerkinElmer) in a total volume of 40 ul. Membranes were mixed with SPA beads. Final concentration of membranes 35 ng/μL final and SPA beads was 0.05 mg/well. Test-compounds were dissolved in DMSO and further diluted in assay buffer (50 mM Hepes, pH 7.4, 1 mM CaCl2, 5 mM MgCl₂, 0.1% OA and 0.02% Tween20). […] The final mixture was incubated with shaking at 400 rpm for 120 min at 25° C. prior to centrifugation (1500 rpm, 10 min). Samples were analyzed on TopCounter™ (Packard). The IC₅₀ was calculated using (one site binding competition analysis) GraphPad Prism5 as a measure of receptor affinity.
Membranes were prepared in the following way; the cells were rinsed with PBS and incubated with Versene for approximately 5 min before harvesting. The cells were flushed with PBS and the cell-suspension was centrifuged for 5 min at 1000 rpm. Cells were homogenized (Ultrathurrax) in a buffer containing 20 mM Na-HEPES and 10 mM EDTA (pH 7.4) and centrifuged at 20.000 rpm for 15 min. The resulting pellet was resuspended, homogenized and centrifuged (20.000 rpm, 15 min) in a buffer containing 20 mM Na-HEPES and 0.1 mM EDTA (pH 7.4, buffer 2). The resulting pellet was resuspended in buffer 2 and protein concentration was measured (BCA protein Assay, Pierce). The homogenate was kept cold during the whole procedure. The membranes were kept at −80° C. until use. Assay was performed in a 384 well Optiplate (PerkinElmer) in a total volume of 40 ul. Membranes were mixed with SPA beads.

B1: N^ε1-[2-[2-[2-[[2-[2-[2-[[(4S)-4-carboxy-4-(19-carboxynonadecanoylamino)butanoyl]amino]ethoxy]ethoxy]acetyl]amino]ethoxy]ethoxy]acetyl]-[Arg17,Pro21,Pro27,Arg34 … (peptide)
peptide: K([AEEA-AEEA-γGlu-C20 diacid])CNTATCATQRLANFLRHSSPNFGAIPSSTNVGRNTY-NH2
modifications: disulfide 2-7; N-terminus assumed
SMILES: CC[C@H](C)[C@H](NC(=O)[C@H](C)NC(=O)CNC(=O)[C@H](Cc1ccccc1)NC(=O)[C@H](CC(N)=O)NC(=O)[C@@H]1CCCN1C(=O)[C@H](CO)NC(=O)[C@H](CO)NC(=O)[C@H](Cc1c[nH]cn1)NC(=O)[C@H](CCCNC(=N)N)NC(=O)[C@H](CC(C)C)NC(=O)[C@H](Cc1ccccc1)NC(=O)[C@H](CC(N)=O)NC(=O)[C@H](C)NC(=O)[C@H](CC(C)C)NC(=O)[C@H](CCCNC(=N)N)NC(=O)[C@H](CCC(N)=O)NC(=O)[C@@H](NC(=O)[C@H](C)NC(=O)[C@@H]1CSSC[C@H](NC(=O)[C@@H](N)CCCCNC(=O)COCCOCCNC(=O)COCCOCCNC(=O)CC[C@H](NC(=O)CCCCCCCCCCCCCCCCCCC(=O)O)C(=O)O)C(=O)N[C@@H](CC(N)=O)C(=O)N[C@@H]([C@@H](C)O)C(=O)N[C@@H](C)C(=O)N[C@@H]([C@@H](C)O)C(=O)N1)[C@@H](C)O)C(=O)N1CCC[C@H]1C(=O)N[C@@H](CO)C(=O)N[C@@H](CO)C(=O)N[C@H](C(=O)N[C@@H](CC(N)=O)C(=O)N[C@H](C(=O)NCC(=O)N[C@@H](CCCNC(=N)N)C(=O)N[C@@H](CC(N)=O)C(=O)N[C@H](C(=O)N[C@@H](Cc1ccc(O)cc1)C(N)=O)[C@@H](C)O)C(C)C)[C@@H](C)O
notes: also called compound 95
For B1, the values for the IC50 in test [1] and in test [2] were 61.3 nM and 0.967 nM, respectively. Besides, the “Ratio hCT/hAmylin binding” value in test [3] amounted to 63.4.

B2: N^ε1-[2-[2-[2-[[2-[2-[2-[[(4S)-4-carboxy-4-(19-carboxynonadecanoylamino)butanoyl]amino]ethoxy]ethoxy]acetyl]amino]ethoxy]ethoxy]acetyl]-[Arg17,Pro21,Pro27,His34 … (peptide)
peptide: K([AEEA-AEEA-γGlu-C20 diacid])CNTATCATQRLANFLRHSSPNFGAIPSSTNVGHNTY-NH2
modifications: disulfide 2-7; N-terminus assumed
SMILES: CC[C@H](C)[C@H](NC(=O)[C@H](C)NC(=O)CNC(=O)[C@H](Cc1ccccc1)NC(=O)[C@H](CC(N)=O)NC(=O)[C@@H]1CCCN1C(=O)[C@H](CO)NC(=O)[C@H](CO)NC(=O)[C@H](Cc1c[nH]cn1)NC(=O)[C@H](CCCNC(=N)N)NC(=O)[C@H](CC(C)C)NC(=O)[C@H](Cc1ccccc1)NC(=O)[C@H](CC(N)=O)NC(=O)[C@H](C)NC(=O)[C@H](CC(C)C)NC(=O)[C@H](CCCNC(=N)N)NC(=O)[C@H](CCC(N)=O)NC(=O)[C@@H](NC(=O)[C@H](C)NC(=O)[C@@H]1CSSC[C@H](NC(=O)[C@@H](N)CCCCNC(=O)COCCOCCNC(=O)COCCOCCNC(=O)CC[C@H](NC(=O)CCCCCCCCCCCCCCCCCCC(=O)O)C(=O)O)C(=O)N[C@@H](CC(N)=O)C(=O)N[C@@H]([C@@H](C)O)C(=O)N[C@@H](C)C(=O)N[C@@H]([C@@H](C)O)C(=O)N1)[C@@H](C)O)C(=O)N1CCC[C@H]1C(=O)N[C@@H](CO)C(=O)N[C@@H](CO)C(=O)N[C@H](C(=O)N[C@@H](CC(N)=O)C(=O)N[C@H](C(=O)NCC(=O)N[C@@H](Cc1c[nH]cn1)C(=O)N[C@@H](CC(N)=O)C(=O)N[C@H](C(=O)N[C@@H](Cc1ccc(O)cc1)C(N)=O)[C@@H](C)O)C(C)C)[C@@H](C)O
notes: also called compound 97
Regarding B2, the values for the IC50 in test [1] and in test [2] were 58.9 nM and 0.568 nM, respectively. For the same molecule, the “Ratio hCT/hAmylin binding” value in test [3] is 104.

B3: N^ε1-[2-[2-[2-[[2-[2-[2-[[(4S)-4-carboxy-4-(19-carboxynonadecanoylamino)butanoyl]amino]ethoxy]ethoxy]acetyl]amino]ethoxy]ethoxy]acetyl]-[Arg17,Pro21,Pro27,Pro31 … (peptide)
peptide: K([AEEA-AEEA-γGlu-C20 diacid])CNTATCATQRLANFLRHSSPNFGAIPSSTPVGSNTY-NH2
modifications: disulfide 2-7; N-terminus assumed
SMILES: CC[C@H](C)[C@H](NC(=O)[C@H](C)NC(=O)CNC(=O)[C@H](Cc1ccccc1)NC(=O)[C@H](CC(N)=O)NC(=O)[C@@H]1CCCN1C(=O)[C@H](CO)NC(=O)[C@H](CO)NC(=O)[C@H](Cc1c[nH]cn1)NC(=O)[C@H](CCCNC(=N)N)NC(=O)[C@H](CC(C)C)NC(=O)[C@H](Cc1ccccc1)NC(=O)[C@H](CC(N)=O)NC(=O)[C@H](C)NC(=O)[C@H](CC(C)C)NC(=O)[C@H](CCCNC(=N)N)NC(=O)[C@H](CCC(N)=O)NC(=O)[C@@H](NC(=O)[C@H](C)NC(=O)[C@@H]1CSSC[C@H](NC(=O)[C@@H](N)CCCCNC(=O)COCCOCCNC(=O)COCCOCCNC(=O)CC[C@H](NC(=O)CCCCCCCCCCCCCCCCCCC(=O)O)C(=O)O)C(=O)N[C@@H](CC(N)=O)C(=O)N[C@@H]([C@@H](C)O)C(=O)N[C@@H](C)C(=O)N[C@@H]([C@@H](C)O)C(=O)N1)[C@@H](C)O)C(=O)N1CCC[C@H]1C(=O)N[C@@H](CO)C(=O)N[C@@H](CO)C(=O)N[C@H](C(=O)N1CCC[C@H]1C(=O)N[C@H](C(=O)NCC(=O)N[C@@H](CO)C(=O)N[C@@H](CC(N)=O)C(=O)N[C@H](C(=O)N[C@@H](Cc1ccc(O)cc1)C(N)=O)[C@@H](C)O)C(C)C)[C@@H](C)O
notes: also called compound 96
With B3, the results for the IC50 in test [1] and in test [2] were 13.2 nM and 0.166 nM, respectively. Further, the “Ratio hCT/hAmylin binding” value in test [3] stood at 79.6.
